Laboratory results reported in patent US20220395548A1.

Columns and labels:
[1] = biological target: gp120 of HIV-1NL4-3 (on virus particles) (HIV-1 (NL4-3)); test: immunoblot with 2G12, band value, 3rd column: Day 12, - MoMo30 by the order of the lanes above
[2] = biological target: gp120 of HIV-1NL4-3 (on virus particles) (HIV-1 (NL4-3)); test: immunoblot with 2G12, band value, 1st column: Day 5, - MoMo30 by the order of the lanes above
[3] = biological target: gp120 of HIV-1NL4-3 (on virus particles) (HIV-1 (NL4-3)); test: immunoblot with 2G12, band value, 5th column: Day 8, + MoMo30 by the order of the lanes above
[4] = biological target: gp120 of HIV-1NL4-3 (on virus particles) (HIV-1 (NL4-3)); test: immunoblot with 2G12, band value, 4th column: Day 5, + MoMo30 by the order of the lanes above
[5] = biological target: gp120 of HIV-1NL4-3 (on virus particles) (HIV-1 (NL4-3)); test: immunoblot with 2G12, band value, 2nd column: Day 8, - MoMo30 by the order of the lanes above
[6] = biological target: gp120 of HIV-1NL4-3 (on virus particles) (HIV-1 (NL4-3)); test: immunoblot with 2G12, band value, 6th column: Day 12, + MoMo30 by the order of the lanes above

Substance “monoclonal antibody 2G12 (AIDS reagent program; cat #1476)” has a gp120 (row of the table under the blot) [1] of 100, a gp120 (row of the table under the blot) [2] of 65 and a gp120 (row of the table under the blot) [3] of 51. It also gave a gp120 (row of the table under the blot) [4] of 87, a gp120 (row of the table under the blot) [5] of 51 and a gp120 (row of the table under the blot) [6] of 16.
